The source of these data is article PMC10043188.

The target in the test is T1, His-tagged Arc, wild type, purified, Q9WV31.
T1 chain: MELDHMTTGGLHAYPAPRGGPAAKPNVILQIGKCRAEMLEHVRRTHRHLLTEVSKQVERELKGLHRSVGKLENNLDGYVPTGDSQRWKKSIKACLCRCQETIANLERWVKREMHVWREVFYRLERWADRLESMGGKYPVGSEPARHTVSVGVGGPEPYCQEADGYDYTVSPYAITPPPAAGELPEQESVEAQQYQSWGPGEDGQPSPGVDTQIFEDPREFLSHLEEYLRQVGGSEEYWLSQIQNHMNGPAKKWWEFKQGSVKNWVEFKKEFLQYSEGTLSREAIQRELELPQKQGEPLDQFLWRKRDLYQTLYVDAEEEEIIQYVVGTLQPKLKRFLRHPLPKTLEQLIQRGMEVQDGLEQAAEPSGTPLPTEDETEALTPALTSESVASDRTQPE
The test can be described thus: SDS-PAGE under non-reducing conditions; purified His-Arc in SDS sample buffer without 2-mercaptoethanol, heated 5 min at 95°C; total protein stain and anti-Arc immunoblot. The note with it: remark: other sources report otherwise.

B1: His-tagged Arc, wild type, purified, Q9WV31 1-396 (natural protein)
chain: T1 chain
B1 registered a stoichiometry N of 2.

As usually defined, the stoichiometry N is the number of molecules, sites or subunits per partner or assembly.
